Reference: the supplement of paper PMC7877785
± gives the uncertainty stated by the source.

Experiment: self-splicing fitness, log relative to wild type (ln ratio); higher = more splicing; Tetrahymena group I intron in knt gene, E. coli kanamycin selection, DiMSum; sequences stand for … in CUCUCU…GGAGGGAAAAGUUAUCAGGCAUGCACCUGGUAGCUAGUCUUUAAACCAAUAGAUUGCAUCGGUUUAAAAGGCAAGACCGUCAAAUUGCGGGAAAGGGGUCAACAGCCGUUCAGUACCAAGUCUCAGGGGAAACUUUGAGAUGGCCUUGCAAAGGGUAUGGUAAUAAGCUGACGGACAUGGUCCUAACCACGCAGCCAAGUCCUAAGUCAACAGAUCUUCUGUUGAUAUGGAUGCAGUUCACAGACUAAAUGUCGGUCGGGGAAGAUGUAUUCUUCUCAUAAGAUAUAGUCGGACCUCUCCUUAAUGGGAGCUAGCGGAUGAAGUGAUGCAACACUGGAGCCGCUGGGAACUAAUUUGUAUGCGAAAGUAUAUUGAUUAGUUUUGGAGUACUCGUGGUCG
Outline: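 Colonies from six replicate transformations of E. coli BL21(DE3) were pooled and amplicon-sequenced on an Illumina HiSeq 2500. The library placed an intron with all eight P1ex-region nucleotides randomised inside the knt kanamycin-resistance gene on pET-22b(+), and cells grew overnight at 37°C or 30°C on LB agar with or without 25 μg/mL kanamycin (plus 100 μg/mL carbenicillin, 50 μM IPTG, 0.2% rhamnose). Fitness is the DiMSum error-weighted combination of wild-type-normalised replicate fold changes, kanamycin versus none.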

With GACGAGCAAUAUUACGUCCU the “self-splicing fitness (ln)” value (30 °C) was -3.24 ± 0.25 and the “self-splicing fitness (ln)” value (37 °C) was -1.81 ± 0.25.
In the case of GACGAGCAAUAUUACGUCGG, the “self-splicing fitness (ln)” value (37 °C) is reported as -1.96 ± 0.34.
For GACGAGCAAUAUUACGUGCU, the “self-splicing fitness (ln)” value (30 °C) was -2.92 ± 0.19 and the “self-splicing fitness (ln)” value (37 °C) was -2.4 ± 0.23.
In the case of GACGAGCAAUAUUACGUUCC, the “self-splicing fitness (ln)” value (30 °C) is reported as -3.47 ± 0.23 and the “self-splicing fitness (ln)” value (37 °C) is reported as -2.65 ± 0.36.
In the case of GACGAGCAAUAUUACGUUCU, the “self-splicing fitness (ln)” value (30 °C) is reported as -4.53 ± 0.37 and the “self-splicing fitness (ln)” value (37 °C) is reported as -2.52 ± 0.24.
With GACUAGCAAUAUUACGAAGG the “self-splicing fitness (ln)” value (30 °C) was -2.64 ± 0.17 and the “self-splicing fitness (ln)” value (37 °C) was -1.87 ± 0.18.
With GACUAGCAAUAUUACGAGGG the “self-splicing fitness (ln)” value (30 °C) was -3.34 ± 0.18 and the “self-splicing fitness (ln)” value (37 °C) was -2.65 ± 0.2.
For GACUAGCAAUAUUACGAUUU, the “self-splicing fitness (ln)” value (30 °C) was 0.261 ± 0.061 and the “self-splicing fitness (ln)” value (37 °C) was 0.116 ± 0.077.
For GACUAGCAAUAUUACGCAAA, the “self-splicing fitness (ln)” value (30 °C) was -1.49 ± 0.15 and the “self-splicing fitness (ln)” value (37 °C) was -1.88 ± 0.23.
With GACUAGCAAUAUUACGCCGG the “self-splicing fitness (ln)” value (37 °C) was -1.67 ± 0.36.
With GACUAGCAAUAUUACGCCUU the “self-splicing fitness (ln)” value (30 °C) was -0.605 ± 0.067 and the “self-splicing fitness (ln)” value (37 °C) was 0.734 ± 0.092.
In the case of GACUAGCAAUAUUACGCGGA, the “self-splicing fitness (ln)” value (30 °C) is reported as -1.55 ± 0.13 and the “self-splicing fitness (ln)” value (37 °C) is reported as -0.984 ± 0.11.
With GACUAGCAAUAUUACGCGGC the “self-splicing fitness (ln)” value (30 °C) was -3.16 ± 0.38.
In the case of GACUAGCAAUAUUACGGAAG, the “self-splicing fitness (ln)” value (30 °C) is reported as -3.56 ± 0.19 and the “self-splicing fitness (ln)” value (37 °C) is reported as -2.21 ± 0.19.
For GACUAGCAAUAUUACGGCUC, the “self-splicing fitness (ln)” value (30 °C) was 0.193 ± 0.1 and the “self-splicing fitness (ln)” value (37 °C) was 0.351 ± 0.12.
With GACUAGCAAUAUUACGGGAA the “self-splicing fitness (ln)” value (30 °C) was -2.32 ± 0.19 and the “self-splicing fitness (ln)” value (37 °C) was -0.809 ± 0.16.
For GACUAGCAAUAUUACGGGGC, the “self-splicing fitness (ln)” value (30 °C) was -4.11 ± 0.23 and the “self-splicing fitness (ln)” value (37 °C) was -1.21 ± 0.13.
In the case of GACUAGCAAUAUUACGGGGG, the “self-splicing fitness (ln)” value (30 °C) is reported as -3.39 ± 0.27 and the “self-splicing fitness (ln)” value (37 °C) is reported as -1.46 ± 0.25.
With GACUAGCAAUAUUACGGGUG the “self-splicing fitness (ln)” value (30 °C) was -1.25 ± 0.078 and the “self-splicing fitness (ln)” value (37 °C) was -0.949 ± 0.07.
For GACUAGCAAUAUUACGGUAG, the “self-splicing fitness (ln)” value (30 °C) was -0.551 ± 0.12 and the “self-splicing fitness (ln)” value (37 °C) was -0.15 ± 0.14.
In the case of GACUAGCAAUAUUACGUCAG, the “self-splicing fitness (ln)” value (30 °C) is reported as -2.88 ± 0.21 and the “self-splicing fitness (ln)” value (37 °C) is reported as -3.7 ± 0.37.
For GAGAAGCAAUAUUACGACUA, the “self-splicing fitness (ln)” value (30 °C) was -0.502 ± 0.061 and the “self-splicing fitness (ln)” value (37 °C) was 0.183 ± 0.082.
In the case of GAGAAGCAAUAUUACGAGCC, the “self-splicing fitness (ln)” value (30 °C) is reported as -1.03 ± 0.097 and the “self-splicing fitness (ln)” value (37 °C) is reported as -0.808 ± 0.15.
With GAGAAGCAAUAUUACGAGUG the “self-splicing fitness (ln)” value (30 °C) was -2.91 ± 0.14 and the “self-splicing fitness (ln)” value (37 °C) was -1.01 ± 0.11.
For GAGAAGCAAUAUUACGCACU, the “self-splicing fitness (ln)” value (30 °C) was -1.73 ± 0.14 and the “self-splicing fitness (ln)” value (37 °C) was -0.249 ± 0.16.
With GAGAAGCAAUAUUACGCAUA the “self-splicing fitness (ln)” value (30 °C) was -1.72 ± 0.13 and the “self-splicing fitness (ln)” value (37 °C) was -1.01 ± 0.14.
In the case of GAGAAGCAAUAUUACGCCCG, the “self-splicing fitness (ln)” value (30 °C) is reported as -2.15 ± 0.19 and the “self-splicing fitness (ln)” value (37 °C) is reported as 0.00226 ± 0.24.
For GAGAAGCAAUAUUACGCGUG, the “self-splicing fitness (ln)” value (30 °C) was -0.423 ± 0.062 and the “self-splicing fitness (ln)” value (37 °C) was -0.803 ± 0.09.
In the case of GAGAAGCAAUAUUACGCUAA, the “self-splicing fitness (ln)” value (30 °C) is reported as -2.47 ± 0.3 and the “self-splicing fitness (ln)” value (37 °C) is reported as -0.911 ± 0.24.
In the case of GAGAAGCAAUAUUACGGAAA, the “self-splicing fitness (ln)” value (30 °C) is reported as -2.35 ± 0.45 and the “self-splicing fitness (ln)” value (37 °C) is reported as -1.92 ± 0.35.
With GAGAAGCAAUAUUACGGACA the “self-splicing fitness (ln)” value (30 °C) was -0.633 ± 0.11 and the “self-splicing fitness (ln)” value (37 °C) was -1.02 ± 0.14.
With GAGAAGCAAUAUUACGGACC the “self-splicing fitness (ln)” value (30 °C) was -0.43 ± 0.18 and the “self-splicing fitness (ln)” value (37 °C) was 0.267 ± 0.19.
With GAGAAGCAAUAUUACGGCAC the “self-splicing fitness (ln)” value (30 °C) was -1.28 ± 0.083 and the “self-splicing fitness (ln)” value (37 °C) was -0.111 ± 0.15.
For GAGAAGCAAUAUUACGGCAG, the “self-splicing fitness (ln)” value (30 °C) was -3.08 ± 0.41 and the “self-splicing fitness (ln)” value (37 °C) was -1.85 ± 0.3.
With GAGAAGCAAUAUUACGGGAC the “self-splicing fitness (ln)” value (30 °C) was -2.56 ± 0.13 and the “self-splicing fitness (ln)” value (37 °C) was -1.37 ± 0.12.
In the case of GAGAAGCAAUAUUACGGGAU, the “self-splicing fitness (ln)” value (30 °C) is reported as -3.32 ± 0.16 and the “self-splicing fitness (ln)” value (37 °C) is reported as -2.58 ± 0.2.
For GAGAAGCAAUAUUACGGGUC, the “self-splicing fitness (ln)” value (30 °C) was -3.08 ± 0.15 and the “self-splicing fitness (ln)” value (37 °C) was -2.24 ± 0.16.
For GAGAAGCAAUAUUACGGUCU, the “self-splicing fitness (ln)” value (30 °C) was -2.29 ± 0.13 and the “self-splicing fitness (ln)” value (37 °C) was -1.16 ± 0.17.
With GAGAAGCAAUAUUACGUAGA the “self-splicing fitness (ln)” value (30 °C) was -2 ± 0.14 and the “self-splicing fitness (ln)” value (37 °C) was -0.626 ± 0.14.
In the case of GAGAAGCAAUAUUACGUAUA, the “self-splicing fitness (ln)” value (30 °C) is reported as -2.51 ± 0.14 and the “self-splicing fitness (ln)” value (37 °C) is reported as -1.71 ± 0.14.
For GAGAAGCAAUAUUACGUCCA, the “self-splicing fitness (ln)” value (30 °C) was -0.235 ± 0.12 and the “self-splicing fitness (ln)” value (37 °C) was 0.335 ± 0.14.
With GAGAAGCAAUAUUACGUCUU the “self-splicing fitness (ln)” value (30 °C) was -2.33 ± 0.23 and the “self-splicing fitness (ln)” value (37 °C) was -2.92 ± 0.36.
For GAGAAGCAAUAUUACGUGGU, the “self-splicing fitness (ln)” value (30 °C) was -3.27 ± 0.17 and the “self-splicing fitness (ln)” value (37 °C) was -2.32 ± 0.21.
